{"source": "patent US20090123452A1", "about": "(TORREY PINES INSTITUTE FOR MOLECULAR STUDIES AND CATALYST …, published 2009)"}
{"biological_target": "T1, mutant antithrombin III AT3/SLGR-KI (human, UniProt P01008 33-464)", "T1 construct": "RCL residues IAGRSL are replaced by SLGRKI; also called AT3 (AT3/SLGR-KI)", "T1 chain": "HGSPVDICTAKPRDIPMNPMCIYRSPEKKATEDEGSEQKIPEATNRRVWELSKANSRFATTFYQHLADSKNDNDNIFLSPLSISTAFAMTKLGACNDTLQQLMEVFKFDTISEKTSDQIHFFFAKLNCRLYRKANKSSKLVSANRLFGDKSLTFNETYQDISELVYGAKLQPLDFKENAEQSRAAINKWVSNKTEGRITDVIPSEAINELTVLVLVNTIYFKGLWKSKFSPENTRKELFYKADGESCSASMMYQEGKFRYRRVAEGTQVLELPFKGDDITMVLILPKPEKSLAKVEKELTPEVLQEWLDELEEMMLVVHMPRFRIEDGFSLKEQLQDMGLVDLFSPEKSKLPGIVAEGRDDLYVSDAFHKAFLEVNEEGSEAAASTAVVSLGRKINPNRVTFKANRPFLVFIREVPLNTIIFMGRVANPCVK", "assay": "phage display selection: complex with His-tagged AT3-SLGRKI bait captured by anti-His antibody on plate"}
{"binder": "Mutant MT-SP1 clone CPC-0023085 (phage) (enzyme, I41F/C122S) VVGGTDADEGEWPWQVSLHALGQGHFCGASLISPNWLVSAAHCYIDDRGFRYSDPTQWTAFLGLHDQSQRSAPGVQERRLKRIISHPFFNDFTFDYDIALLELEKPAEYSSMVRPISLPDASHVFPAGKAIWVTGWGHTQYGGTGALILQKGEIRVINQTTCENLLPQQITPRMMCVGFLSGGVDSCQGDSGGPLSSVEADGRIFQAGVVSWGDGCAQRNKPGVYTRLPLFRDWIKENTGVSGSSGGGSEGGGSEGGGSEGGGSGGGSGSGDFDYEKMANANKGAMTENADENALQSDAKGKLDSVATDYGAAIDGFIGDVSGLANGNGATGDFAGSNSQMAQVGDGDNSPLMNNFRQYLPSLPQSVECRPFVFSAGKPYEFSIDCDKINLFRGVFAFLLYVATFMYVFSTFANILRNKES", "binding result": "binds"}
{"binder": "Mutant MT-SP1 clone CPC-0025720 (phage) (enzyme, C122S/H143R/Q175R) VVGGTDADEGEWPWQVSLHALGQGHICGASLISPNWLVSAAHCYIDDRGFRYSDPTQWTAFLGLHDQSQRSAPGVQERRLKRIISHPFFNDFTFDYDIALLELEKPAEYSSMVRPISLPDASHVFPAGKAIWVTGWGRTQYGGTGALILQKGEIRVINQTTCENLLPQRITPRMMCVGFLSGGVDSCQGDSGGPLSSVEADGRIFQAGVVSWGDGCAQRNKPGVYTRLPLFRDWIKENTGVSGSSGGGSEGGGSEGGGSEGGGSGGGSGSGDFDYEKMANANKGAMTENADENALQSDAKGKLDSVATDYGAAIDGFIGDVSGLANGNGATGDFAGSNSQMAQVGDGDNSPLMNNFRQYLPSLPQSVECRPFVFSAGKPYEFSIDCDKINLFRGVFAFLLYVATFMYVFSTFANILRNKES", "binding result": "binds"}
{"binder": "Mutant MT-SP1 clone CPC-0019595 (phage) (enzyme, C122S/I136T/N164D/T166A/F184(A)L/D217V (chymotrypsin numbering); the STII leader is not counted) VVGGTDADEGEWPWQVSLHALGQGHICGASLISPNWLVSAAHCYIDDRGFRYSDPTQWTAFLGLHDQSQRSAPGVQERRLKRIISHPFFNDFTFDYDIALLELEKPAEYSSMVRPISLPDASHVFPAGKATWVTGWGHTQYGGTGALILQKGEIRVIDQATCENLLPQQITPRMMCVGLLSGGVDSCQGDSGGPLSSVEADGRIFQAGVVSWGVGCAQRNKPGVYTRLPLFRDWIKENTGVSGSSGGGSEGGGSEGGGSEGGGSGGGSGSGDFDYEKMANANKGAMTENADENALQSDAKGKLDSVATDYGAAIDGFIGDVSGLANGNGATGDFAGSNSQMAQVGDGDNSPLMNNFRQYLPSLPQSVECRPFVFSAGKPYEFSIDCDKINLFRGVFAFLLYVATFMYVFSTFANILRNKES", "binding result": "binds"}
{"binder": "Mutant MT-SP1 clone CPC-0026100 (phage) (enzyme, I41F/C122S/I154V/V244G) VVGGTDADEGEWPWQVSLHALGQGHFCGASLISPNWLVSAAHCYIDDRGFRYSDPTQWTAFLGLHDQSQRSAPGVQERRLKRIISHPFFNDFTFDYDIALLELEKPAEYSSMVRPISLPDASHVFPAGKAIWVTGWGHTQYGGTGALVLQKGEIRVINQTTCENLLPQQITPRMMCVGFLSGGVDSCQGDSGGPLSSVEADGRIFQAGVVSWGDGCAQRNKPGVYTRLPLFRDWIKENTGGSGSSGGGSEGGGSEGGGSEGGGSGGGSGSGDFDYEKMANANKGAMTENADENALQSDAKGKLDSVATDYGAAIDGFIGDVSGLANGNGATGDFAGSNSQMAQVGDGDNSPLMNNFRQYLPSLPQSVECRPFVFSAGKPYEFSIDCDKINLFRGVFAFLLYVATFMYVFSTFANILRNKES", "binding result": "binds"}
{"binder": "Mutant MT-SP1 clone CPC-0026232 (phage) (enzyme) VVGGTDADEGEWPWQVSLHALGQGHFCGASLISPNWMVSAAHCYIDDRGFRYSDPTQWTAFLGLHDQSQRSAPGVQERRLKRIISHPFFNDFTFDYDIALLELEKPAEYSSMVRPISLPDASHDFPAGKAIWVTGWGHTQYGGTGALILQKGEIRVINQTTCENLLPQQITPRMMCVGFLSGGVDSCQGDSGGPLSSVEADGRIFQAGVVSWGDGCALRNKPGVYTRLPLFRDWIKENTGVSGSSGGGSEGGGSEGGGSEGGGSGGGSGSGDFDYEKMANANKGAMTENADENALQSDAKGKLDSVATDYGAAIDGFIGDVSGLANGNGATGDFAGSNSQMAQVGDGDNSPLMNNFRQYLPSLPQSVECRPFVFSAGKPYEFSIDCDKINLFRGVFAFLLYVATFMYVFSTFANILRNKES", "binding result": "binds"}
{"binder": "Mutant MT-SP1 clone CPC-0025876 (phage) (enzyme, I41F/C122S/L171F) VVGGTDADEGEWPWQVSLHALGQGHFCGASLISPNWLVSAAHCYIDDRGFRYSDPTQWTAFLGLHDQSQRSAPGVQERRLKRIISHPFFNDFTFDYDIALLELEKPAEYSSMVRPISLPDASHVFPAGKAIWVTGWGHTQYGGTGALILQKGEIRVINQTTCENFLPQQITPRMMCVGFLSGGVDSCQGDSGGPLSSVEADGRIFQAGVVSWGDGCAQRNKPGVYTRLPLFRDWIKENTGVSGSSGGGSEGGGSEGGGSEGGGSGGGSGSGDFDYEKMANANKGAMTENADENALQSDAKGKLDSVATDYGAAIDGFIGDVSGLANGNGATGDFAGSNSQMAQVGDGDNSPLMNNFRQYLPSLPQSVECRPFVFSAGKPYEFSIDCDKINLFRGVFAFLLYVATFMYVFSTFANILRNKES", "binding result": "binds"}
{"binder": "Mutant MT-SP1 clone CPC-0025366 (phage) (enzyme, D23E/I41F/T98P/C122S/T144I) VVGGTDAEEGEWPWQVSLHALGQGHFCGASLISPNWLVSAAHCYIDDRGFRYSDPTQWTAFLGLHDQSQRSAPGVQERRLKRIISHPFFNDFPFDYDIALLELEKPAEYSSMVRPISLPDASHVFPAGKAIWVTGWGHIQYGGTGALILQKGEIRVINQTTCENLLPQQITPRMMCVGFLSGGVDSCQGDSGGPLSSVEADGRIFQAGVVSWGDGCAQRNKPGVYTRLPLFRDWIKENTGVSGSSGGGSEGGGSEGGGSEGGGSGGGSGSGDFDYEKMANANKGAMTENADENALQSDAKGKLDSVATDYGAAIDGFIGDVSGLANGNGATGDFAGSNSQMAQVGDGDNSPLMNNFRQYLPSLPQSVECRPFVFSAGKPYEFSIDCDKINLFRGVFAFLLYVATFMYVFSTFANILRNKES", "binding result": "binds"}
{"binder": "Mutant MT-SP1 clone CPC-0024153 (phage) (enzyme, I41F/C122S/A126T/V244G) VVGGTDADEGEWPWQVSLHALGQGHFCGASLISPNWLVSAAHCYIDDRGFRYSDPTQWTAFLGLHDQSQRSAPGVQERRLKRIISHPFFNDFTFDYDIALLELEKPAEYSSMVRPISLPDTSHVFPAGKAIWVTGWGHTQYGGTGALILQKGEIRVINQTTCENLLPQQITPRMMCVGFLSGGVDSCQGDSGGPLSSVEADGRIFQAGVVSWGDGCAQRNKPGVYTRLPLFRDWIKENTGGSGSSGGGSEGGGSEGGGSEGGGSGGGSGSGDFDYEKMANANKGAMTENADENALQSDAKGKLDSVATDYGAAIDGFIGDVSGLANGNGATGDFAGSNSQMAQVGDGDNSPLMNNFRQYLPSLPQSVECRPFVFSAGKPYEFSIDCDKINLFRGVFAFLLYVATFMYVFSTFANILRNKES", "binding result": "binds"}
{"binder": "Mutant MT-SP1 clone CPC-0025582 (phage) (enzyme, I41F/C122S/L171F/V244G) VVGGTDADEGEWPWQVSLHALGQGHFCGASLISPNWLVSAAHCYIDDRGFRYSDPTQWTAFLGLHDQSQRSAPGVQERRLKRIISHPFFNDFTFDYDIALLELEKPAEYSSMVRPISLPDASHVFPAGKAIWVTGWGHTQYGGTGALILQKGEIRVINQTTCENFLPQQITPRMMCVGFLSGGVDSCQGDSGGPLSSVEADGRIFQAGVVSWGDGCAQRNKPGVYTRLPLFRDWIKENTGGSGSSGGGSEGGGSEGGGSEGGGSGGGSGSGDFDYEKMANANKGAMTENADENALQSDAKGKLDSVATDYGAAIDGFIGDVSGLANGNGATGDFAGSNSQMAQVGDGDNSPLMNNFRQYLPSLPQSVECRPFVFSAGKPYEFSIDCDKINLFRGVFAFLLYVATFMYVFSTFANILRNKES", "binding result": "binds"}
